Results on 8 molecules are retold here after patent publication US20230374083A1.

One series addresses trastuzumab. The series is described as follows: cell-based or functional assay.
The target in series [1] is IgG1 in the sera of humans.
Series [2] concerns the target human IVIg (an intravenous human immunoglobulin).

Where only a bound is given, the exact number is not on record here.

Take IdeE T8D (enzyme): the cleavage of human IgG1, SDS-PAGE of cleavage products (fold of wild-type IdeE) with trastuzumab is above 2.
The same measure, in the same setting: the same measure for IdeE T24A (enzyme): above 2; for IdeE A59V (enzyme): above 2.
Same read-out and setting: then IdeE T8W (enzyme), with above 2; and IdeE E97D (enzyme), with above 2.
Molecule IdeE A59L (enzyme) registered a cleavage of human IgG1, SDS-PAGE of cleavage products (fold of wild-type IdeE) in the series with trastuzumab above 2.
Regarding IdeE R280H (enzyme), the cleavage of human IgG1, SDS-PAGE of cleavage products (fold of wild-type IdeE) with trastuzumab is above 2.

B1: E97D_del18 (protein)
chain: MITSVWTKGVTPLTPEQFRYNNEDVIHAPYLAHQGWYDITKAFDGKDNLLCGAATAGNMLHWWFDQNKTEIEAYLSKHPDKQKIIFNNQELFDLKAAIDTKDSQTNSQLFNYFRDKAFPNLSARQLGVMPDLVLDMFINGYYLNVFKTQSTDVNRPYQDKDKRGGIFDAVFTRGDQTTLLTARHDLKNKGLNDISTIIKQELTEGRALALSHTYANVSISHVINLWGADFNAEGNLEAIYVTDSDANASIGMKKYFVGINAHRHVAISAKKIEGENIGAQVLGLFTLSSGKDIWQKLSHHHHHH
For the molecule B1, the “cleavage of serum IgG in vitro, reducing SDS-PAGE (25 kD Fc fragment)” value is “E97D_del18 can effectively and specifically cleave IgG1 in the sera of humans” in series [1]; “has very low or no activity of cleaving IgG1 in the sera of mice” with IgG1 in the sera of mice. In addition, the “cleavage of human IVIg in mouse serum or plasma in vitro, non-reducing SDS-PAGE” value in series [2] was “E97D_del18 can effectively cleave human IVIg in both the sera and plasmas of mice”.
